Measurements from US20250368745A1 (published 2025).
Several values for one entry are separate records, joined by “and”; a condition that tells them apart may be missing. Equal values may be shown once. Read-outs that look alike come from different tables or passages of the source.

Key:
[1] = target: hypo-IL-18 (IL-18 tethered to IL-18BP by a flexible linker with TEV site, 6xHis) (human); assay: BLI
[2] = target: T1, human IL-18BP (interleukin-18 binding protein, isoform A) (human, UniProt O95998 31-194); assay: cell-based or functional assay
T1 sequence: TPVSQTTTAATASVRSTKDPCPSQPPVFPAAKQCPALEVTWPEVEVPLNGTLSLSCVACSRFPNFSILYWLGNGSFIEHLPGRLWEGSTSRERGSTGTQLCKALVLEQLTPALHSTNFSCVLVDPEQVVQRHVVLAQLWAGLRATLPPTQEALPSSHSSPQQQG

[3] = target: T1, human IL-18BP (interleukin-18 binding …); assay: cell-based or functional assay; remark: listed apart in the source
[4] = target: T1, human IL-18BP (interleukin-18 binding …); assay: BLI (Octet), mAb on AHC biosensor
cynomolgus IL-18BP [5] = target: T2, cynomolgus IL-18BP (cynomolgus monkey); assay: BLI (Octet), mAb on AHC biosensor
T2 construct: Generated in-house; also called cyIL-18BP; cyno IL-18BP
T2 chain: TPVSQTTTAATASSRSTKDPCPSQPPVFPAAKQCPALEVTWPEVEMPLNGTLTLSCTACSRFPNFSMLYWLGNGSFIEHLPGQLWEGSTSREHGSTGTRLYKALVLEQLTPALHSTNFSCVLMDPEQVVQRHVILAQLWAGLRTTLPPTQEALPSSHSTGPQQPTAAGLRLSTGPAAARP

[6] = target: T1, human IL-18BP (interleukin-18 binding …); assay: BLI (Octet), mAb on AHC biosensor; remark: listed apart in the source
cynomolgus IL-18BP [7] = target: T2, cynomolgus IL-18BP; assay: BLI (Octet), mAb on AHC biosensor
[8] = target: T1, human IL-18BP (interleukin-18 binding …); assay: BLI (Octet), mAb on AHC biosensor; remark: listed apart in the source
cynomolgus IL-18BP [9] = target: T2, cynomolgus IL-18BP; assay: BLI (Octet), mAb on AHC biosensor
cynomolgus IL-18BP [10] = target: T2, cynomolgus IL-18BP; assay: ratio of BLI KDs for cyno and human IL-18BP
mouse IL-18BP [11] = target: T3, mouse IL-18BP (mouse, UniProt Q9Z0M9 29-193); assay: BLI (Octet), mAb on AHC biosensor
T3 construct: also called mIL-18BP
T3 sequence: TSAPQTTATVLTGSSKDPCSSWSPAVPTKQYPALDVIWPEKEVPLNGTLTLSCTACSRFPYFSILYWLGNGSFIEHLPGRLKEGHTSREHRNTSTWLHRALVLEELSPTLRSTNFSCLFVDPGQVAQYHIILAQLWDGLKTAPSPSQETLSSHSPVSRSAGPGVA

[12] = target: T1, human IL-18BP (interleukin-18 binding …); assay: BLI (Octet), mAb on AHC biosensor; remark: listed apart in the source
cynomolgus IL-18BP [13] = target: T2, cynomolgus IL-18BP; assay: BLI (Octet), mAb on AHC biosensor
[14] = target: T1, human IL-18BP (interleukin-18 binding …); assay: BLI (Octet), mAb on AHC biosensor; remark: listed apart in the source
cynomolgus IL-18BP [15] = target: T2, cynomolgus IL-18BP; assay: BLI (Octet), mAb on AHC biosensor
cynomolgus IL-18BP [16] = target: T2, cynomolgus IL-18BP; assay: ratio of BLI KDs, cyno against human IL-18BP
mouse IL-18BP [17] = target: T3, mouse IL-18BP; assay: BLI (Octet), mAb on AHC biosensor; remark: listed apart in the source
[18] = target: T1, human IL-18BP (interleukin-18 binding …); assay: cell-based or functional assay; remark: listed apart in the source
mouse IL-18BP [19] = target: T3, mouse IL-18BP; assay: BLI (Octet), mAb on AHC biosensor; remark: listed apart in the source
[20] = target: T1, human IL-18BP (interleukin-18 binding …); assay: BLI single-concentration screen, apparent KD
cynomolgus IL-18BP [21] = target: T2, cynomolgus IL-18BP; assay: BLI single-concentration screen, apparent KD
mouse IL-18BP [22] = target: T3, mouse IL-18BP; assay: BLI (Octet), mAb on AHC biosensor; remark: listed apart in the source

Sequence of hypo-IL-18 (IL-18 tethered to IL-18BP by a flexible linker with TEV site, 6xHis) (human) (chain, as listed by the source limits assumed): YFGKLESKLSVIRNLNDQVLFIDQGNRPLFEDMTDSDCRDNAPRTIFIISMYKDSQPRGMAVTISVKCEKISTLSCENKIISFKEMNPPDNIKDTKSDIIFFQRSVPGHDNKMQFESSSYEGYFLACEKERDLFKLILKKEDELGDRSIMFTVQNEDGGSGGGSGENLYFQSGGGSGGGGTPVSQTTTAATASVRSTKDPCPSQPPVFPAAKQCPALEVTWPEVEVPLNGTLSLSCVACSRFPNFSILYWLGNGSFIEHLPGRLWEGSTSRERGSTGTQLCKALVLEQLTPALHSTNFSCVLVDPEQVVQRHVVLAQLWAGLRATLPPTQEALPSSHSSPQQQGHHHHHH

B1: SA04a (antibody, human IgG1, V domains shown)
VH: QIQFVQSGPEVKTPGETVKISCKASVYTFTEYPMHWLKQAPGEDFEWMGWIHTYSGEPTYADDFKGRFAFSLETSASTAYLQINNLKTEDTATYFCARGRYYGALDYWGQGTALT
VL: DIQMTQTPSSLSASLGDRVTISCRASQDISNYLNWYQQKPDGTVKLLIYYTSRLHSGVPSRFSGSGSGTDYSLTISNLEQEDVATYFCQHGNTLPRTFGGGTKLEIK
notes: murine variable regions on human IgG1 kappa constant regions
binding result [1]: no binding | EC50 (nM), HEK293 IL-18 Reporter Assay (SEAP) [2]: 0.1 nM | EC50 (nM), KG-1 Assay (IFNγ) [3]: 2.6 nM | Kd [4]: 250 pM | Kd (cynomolgus IL-18BP [5]): 670 pM | Kd [6]: 260 pM | Kd (cynomolgus IL-18BP [7]): 1500 pM | Kd [8]: 260 pM | Kd (cynomolgus IL-18BP [9]): 1500 pM | Human/Cyno Fold Difference (cynomolgus IL-18BP [10]): 5.8 fold

B2: SA44a (antibody, human IgG1, V domains shown)
VH: DVQLQESGPDLVKPSQSLSLTCTVTGYSITSDYNCHWIRQFPGNKLEWMGYIHYSGSTNYNPSLKSRISITRDTSKNQFFLQLNSVTAEDTATYYCARNYGSIYVNYFDYWGQGTTLTVSS
VL: QIVLTQSPAIMSASPGEKVTISCSASSSVSYMYWYQQEPGSSPKPWIYRTSNLASGVPPRFSGSGSGTSYSLTISSMEAEDAATYFCQQYHSYPTFGGGTKLEIK
notes: as for B1
binding result [1]: no binding | Kd [4]: 510 pM | Kd (cynomolgus IL-18BP [5]): 670 pM | Kd [6]: 688 pM | Kd (cynomolgus IL-18BP [7]): 525 pM | binding result (mouse IL-18BP [11]): no binding | Kd [12]: 688 pM | Kd (cynomolgus IL-18BP [13]): 525 pM | Kd [14]: 685 pM | Kd (cynomolgus IL-18BP [15]): 524 pM | Human/Cyno Fold Difference (cynomolgus IL-18BP [10]): 1 fold | Cyno/human (cynomolgus IL-18BP [16]): 0.76 ratio

B3: SA50a (antibody, human IgG1, V domains shown)
VH: QVQLVQSGSELKKPGASVKVSCKASVYTFTEYPMHWLRQAPGQGFEWMGWIHTYSGEPTYADDFKGRFVFSLDTSVSTAYLQISSLKAEDTAVYFCARGRYYGALDYWGQGTALTVSS
VL: DIQMTQSPSSLSASVGDRVTITCRASQDISNYLNWYQQKPGKAVKLLIYYTSRLHSGVPSRFSGSGSGTDYTFTISSLQPEDIATYFCQHGNTLPRTFGGGTKLEIK
notes: humanized; human IgG1 (suffix a), kappa; also called humanized SA04a
Kd [8]: 410 pM | Kd (cynomolgus IL-18BP [9]): 4270 pM | binding result (mouse IL-18BP [17]): no binding

B4: SA301a (antibody, human IgG1, V domains shown)
VH: QVQLQESGPGLVKPSQTLSLTCTVSGYSITSDYNSHWIRQPPGKGLEWIGYIHYSGSTNYNPSLKSRVTISRDTSKNQFSLKLSSVTAADTAVYYCARNYGSIYVNYFDYWGQGTLVTVSS
VL: EIVLTQSPATLSLSPGERATLSCSASSSVSYMYWYQQKPGQAPRPLIYRTSNLASGIPARFSGSGSGTDFTLTISSLEPEDFAVYYCQQYHSYPTFGGGTKVEIK
notes: humanized; human IgG1 (suffix a), kappa; also called humanized SA44a
EC50 (nM), KG-1 Assay (IFNγ) [3]: 1.3 nM | EC50 in PBMC Assay 1 (endogenous IL-18BP), IFNγ [18]: 2000 pM | Kd [12]: 162 pM | Kd (cynomolgus IL-18BP [13]): 78 pM | binding result (mouse IL-18BP [19]): no binding | Kd [14]: 217 pM | Kd (cynomolgus IL-18BP [15]): 102 pM | Cyno/human (cynomolgus IL-18BP [16]): 0.47 ratio | Kd [20]: 200 pM and 300 pM | Kd (cynomolgus IL-18BP [21]): 100 pM and 200 pM

B5: SA31a (antibody, human IgG1, V domains shown)
VH: QVQLQQPGSELVRPGASVKLSCKASGYTFTSYWMHWVKQRPGQGLEWIGNIYPGSGNTIYDEKFKSKATLTVDTSSSTAYMQLSSLTSEDSAVYYCTRWDNWEGYYFDYWGQGTTLTVSS
VL: DIVMTQAAFSNPVTLGTSASISCRSSKSLLHSNGITYLYWYLQKPGQSPQLLIYQMSNLASGVPDRFSSSGSGTDFTLRISRVEAEDVGVYYCAQNLELPWTFGGGTKLEIK
notes: as for B1
binding result [1]: no binding | EC50 (nM), HEK293 IL-18 Reporter Assay (SEAP) [2]: 2.62 nM | EC50 (nM), KG-1 Assay (IFNγ) [3]: 185 nM | Kd [4]: 3000 pM | Kd (cynomolgus IL-18BP [5]): 5000 pM

B6: SA35a (antibody, human IgG1, V domains shown)
VH: QVQLQQSGAELVRPGVSVKISCKGSGYTFTDYPMHWVKQSHAKSLEWIGVISTYYGDASYNQKFKGKATMTVDKSSSTAYMELARLTSEDSAIYYCARWRGSFDYWGQGTTLTVSS
VL: ENVLTQSPAIMSASPGEKVTMTCRASSSVSSSYLHWYQQKSGASPKLWIYSTSNLASGVPARFSGSGSGTSYSLTISSVEAEDAATYYCQQYSGYHTFGGGTKLEIK
notes: as for B1
binding result [1]: no binding | EC50 (nM), HEK293 IL-18 Reporter Assay (SEAP) [2]: 21 nM | EC50 (nM), KG-1 Assay (IFNγ) [3]: 103 nM | Kd [4]: 11000 pM | Kd (cynomolgus IL-18BP [5]): 13000 pM

B7: SA07a (antibody, human IgG1, V domains shown)
VH: EVQLQQSGPELVKPGASVKISCKASGYTFTDYYMNWVKQSHGKSLEWIGDINPNNGGTSYNQKFKGKATLTVDKSSNTAYMELRSLTSEDSAVYYCAREGVYSNYGGYFDYWGQGTTLTVSS
VL: QIVLTQSPALMSASPGEKVTMTCSASSSVSYMYWYQQKPRSSPKPWIYLTSNLASGVPARFSGSGSGTSYSLTISSMEAEDAATYYCQQWSSNPPTFGSGTKLEIK
notes: as for B1
binding result (mouse IL-18BP [22]): no binding
